In assay [1] the target is recombinant biotinylated human FcRn (Immunitrack) (human) (UniProt P55899). Description: SPR; biotinylated human FcRn (~100 RU) captured on an SA sensor chip; 2-fold serial dilutions of albumin variants or GLP-1 albumin fusions injected in duplicates; pH 5.5 PBS (177 mM phosphate, 85 mM NaCl, 0.05% Tween 20), 25 °C, 40 µL/min; 1:1 Langmuir model.
For assay [2] the target is unchanged.
Assay [3] shares this target. This is another data set of the same source.
Assay [4] has as its target human FcRn of the human FcRn Affinity Column (Roche) (human) (UniProt P55899). Description: analytical FcRn affinity chromatography; human FcRn Affinity Column (Roche); albumin or GLP-1 albumin fusions (2 mg/mL) loaded at pH 5.5 and eluted by a pH gradient from 5.5 (20 mM MES/HCl, 140 mM NaCl) to 8.8 (20 mM Tris/HCl, 140 mM NaCl), 0.5 mL/min, 110 min, room temperature.
Assay [5] has as its target human GLP-1 receptor (GLP-1R) on reporter cells (human) (UniProt P43220).
Assay [6] deals with recombinant biotinylated human FcRn (Immunitrack) (human) (UniProt P55899). This is another data set of the same source.

Bounds are passed on as bounds.

Sequence of UniProt P43220 (P43220 24-463): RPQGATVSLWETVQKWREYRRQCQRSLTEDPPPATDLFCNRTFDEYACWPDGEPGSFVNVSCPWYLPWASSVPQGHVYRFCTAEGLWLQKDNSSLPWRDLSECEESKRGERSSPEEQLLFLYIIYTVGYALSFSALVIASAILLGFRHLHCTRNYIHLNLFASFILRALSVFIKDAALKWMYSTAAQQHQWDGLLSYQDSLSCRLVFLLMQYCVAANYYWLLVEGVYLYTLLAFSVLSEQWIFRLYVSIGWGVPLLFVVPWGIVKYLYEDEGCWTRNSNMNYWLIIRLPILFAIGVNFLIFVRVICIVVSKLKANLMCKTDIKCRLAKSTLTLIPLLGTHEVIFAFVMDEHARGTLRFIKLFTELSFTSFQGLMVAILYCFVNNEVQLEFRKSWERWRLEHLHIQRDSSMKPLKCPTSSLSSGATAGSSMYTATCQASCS

Consider human albumin L585I (natural protein), for which, in assay [1], the Kd (commonly a measure of binding affinity in units of concentration) is 604 nM; the koff (usually the first-order rate constant of dissociation) worked out at 0.0175 s⁻¹; the kon (as a rule, a measure of how fast the partners come together) was 29000 M⁻¹ s⁻¹.

On to “QMP-engineered human albumin (E505Q, T527M, K573P), full-length (natural protein)”, for which, in assay [1], the Kd stood at 0.3 nM, the koff was 4e-05 s⁻¹ and the kon was 144000 M⁻¹ s⁻¹. In addition, the plasma half-life after IV injection in hemizygous human FcRn Tg32 mice in assay [2] was determined as 4.5 days.

Take human albumin L585M (natural protein): in assay [1], the Kd was 678 nM, the koff came out at 0.0197 s⁻¹ and the kon is 29000 M⁻¹ s⁻¹.

For “GLP-1 QMP (GLP-1 albumin fusion with QMP-engineered albumin)”, the plasma half-life after IV injection in homozygous human FcRn Tg32 mice (GLP-1 WT: 1.3 days) in assay [3] turned out to be 2.7 days. In addition, in assay [1], the Kd is less than 0.03 nM, the koff was less than 1e-05 s⁻¹ and the association rate constant (kon) was 381000 M⁻¹ s⁻¹. The same substance displayed an elution pH in assay [4] of 7.8 pH. Moreover, the EC50 of luciferase signal in human GLP-1R reporter cells (0.08–6250 nM, 23 h) in assay [5] was 44.4 nM. For the same substance, the cellular recycling in HERA with HMEC-1-FcRn cells (800 nM), relative to GLP-1 WT in assay [6] worked out at 4.5 fold.

For “GLP-1 LX (GLP-1 albumin fusion with WT albumin lacking L585)”, in assay [3], the plasma half-life after IV injection in homozygous human FcRn Tg32 mice (GLP-1 WT: 1.3 days) came to 0.9 days. Also, in assay [1], the Kd was 515 nM, the koff amounted to 0.0221 s⁻¹ and the kon was found to be 43000 M⁻¹ s⁻¹. Besides, the elution pH in assay [4] worked out at 6.3 pH. In addition, the cellular recycling in HERA with HMEC-1-FcRn cells (800 nM), relative to GLP-1 WT in assay [6] is 2 fold less.

Regarding “GLP-1 WT (albiglutide-mimic; two GLP-1(7-36) A2G in tandem fused to the N-terminus of human WT albumin) (from UniProt P02768 25-609)”, the Kd in assay [1] was determined as 114 nM. Also, the elution pH in assay [4] turned out to be 6.7 pH. This substance showed an EC50 of luciferase signal in human GLP-1R reporter cells (0.08–6250 nM, 23 h) in assay [5] of 50 nM.

Regarding “GLP-1 QMP/LX (GLP-1 albumin fusion with QMP-engineered albumin lacking L585)”, the Kd in assay [1] came to 0.2 nM.

In the case of human albumin L585V (natural protein), in assay [1], the Kd worked out at 684 nM, the koff was found to be 0.0233 s⁻¹ and the kon was 34000 M⁻¹ s⁻¹.

Consider “unfused GLP-1(7–36) included in the reporter assay kit (peptide)”, for which the EC50 of luciferase signal in human GLP-1R reporter cells (0.00062–50 nM, 23 h) in assay [5] is 0.28 nM.

In the case of “Tanzeum (albiglutide) (from UniProt P02768 25-609)”, the Kd in assay [1] was determined as 76.1 nM. For the same substance, the elution pH in assay [4] is 6.9 pH.

Turning to “QMP variant recombinantly expressed without the L585 residue (QMP/LX) (natural protein)”, in assay [1], the Kd amounted to 0.9 nM, the koff is 0.0001 s⁻¹ and the kon is 115000 M⁻¹ s⁻¹. Moreover, the plasma half-life after IV injection in hemizygous human FcRn Tg32 mice in assay [2] was determined as 4.3 days.

The record behind these values is publication PMC12106674.
